Source: US20150166606A1 (RA PHARMACEUTICALS, published 2015)
Read-outs that look alike come from different tables or passages of the source. Bridge positions count the residues as written; N and C are the ends. Square brackets hold non-standard residues; d marks the D form. Ends that are not written are not given here. * marks the point of attachment. mXylyl = xylyl linker from dibromoxylene joining the two cysteines; des‑NH2 = missing amino-terminal amine group; NMeW = CN[C@@H](Cc1c[nH]c2ccccc12)C(=O)O; NMeY = CN[C@@H](Cc1ccc(O)cc1)C(=O)O; NMeT = CN[C@H](C(=O)O)[C@@H](C)O; Phg = N[C@H](C(=O)O)c1ccccc1; Tle = CC(C)(C)[C@H](N)C(=O)O; NMeS = CN[C@@H](CO)C(=O)O; Heptanoyl = CCCCCCC(=O)*; NMeA = CN[C@@H](C)C(=O)O; Nva = CCC[C@H](N)C(=O)O

T1: tissue kallikrein KLK13 (R&D Systems) (human, UniProt Q9UKR3 17-277, limits assumed)
T1 sequence (looked up): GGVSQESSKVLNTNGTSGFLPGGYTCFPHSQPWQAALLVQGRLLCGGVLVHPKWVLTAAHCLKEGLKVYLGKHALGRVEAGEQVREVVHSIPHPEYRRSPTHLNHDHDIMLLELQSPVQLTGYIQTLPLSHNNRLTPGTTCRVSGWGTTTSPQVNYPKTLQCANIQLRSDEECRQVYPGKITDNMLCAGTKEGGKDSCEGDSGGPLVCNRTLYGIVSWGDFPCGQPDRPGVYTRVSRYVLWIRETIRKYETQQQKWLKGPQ

T2: Factor VIIa (Enzyme Research Laboratories) (human, UniProt P08709 61-466)
T2 sequence (looked up): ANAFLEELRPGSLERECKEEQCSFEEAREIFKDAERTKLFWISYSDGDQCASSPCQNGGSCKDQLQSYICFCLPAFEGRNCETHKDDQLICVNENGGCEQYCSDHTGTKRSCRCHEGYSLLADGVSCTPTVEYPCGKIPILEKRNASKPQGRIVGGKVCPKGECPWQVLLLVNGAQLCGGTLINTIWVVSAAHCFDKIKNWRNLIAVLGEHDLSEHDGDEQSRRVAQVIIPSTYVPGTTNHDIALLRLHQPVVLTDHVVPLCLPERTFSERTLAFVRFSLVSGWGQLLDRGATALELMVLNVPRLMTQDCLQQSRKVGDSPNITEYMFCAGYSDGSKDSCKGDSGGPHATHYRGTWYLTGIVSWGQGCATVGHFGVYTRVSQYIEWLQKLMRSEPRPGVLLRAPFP

T3: Factor XIIa (Enzyme Research Laboratories) (human, UniProt P00748 20-615, limits assumed)
T3 sequence (looked up): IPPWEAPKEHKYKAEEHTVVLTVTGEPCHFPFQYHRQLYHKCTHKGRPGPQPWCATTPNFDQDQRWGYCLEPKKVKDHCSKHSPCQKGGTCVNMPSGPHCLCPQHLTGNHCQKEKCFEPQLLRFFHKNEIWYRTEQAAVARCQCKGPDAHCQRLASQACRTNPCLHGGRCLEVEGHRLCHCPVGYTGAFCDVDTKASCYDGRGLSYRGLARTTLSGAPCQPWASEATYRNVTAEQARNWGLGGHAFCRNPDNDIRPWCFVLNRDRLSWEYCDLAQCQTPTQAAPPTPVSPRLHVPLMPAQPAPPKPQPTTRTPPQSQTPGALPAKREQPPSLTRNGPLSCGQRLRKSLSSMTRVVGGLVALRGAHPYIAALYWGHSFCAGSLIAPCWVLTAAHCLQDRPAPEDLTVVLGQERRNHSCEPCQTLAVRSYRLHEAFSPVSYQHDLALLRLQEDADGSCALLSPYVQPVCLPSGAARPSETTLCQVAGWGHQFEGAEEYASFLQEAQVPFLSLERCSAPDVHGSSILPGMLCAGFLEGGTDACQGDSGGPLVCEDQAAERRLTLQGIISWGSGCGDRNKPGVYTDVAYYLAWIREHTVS


Tests used:
Assay in all cases: cell-based or functional assay
[1] = target: T4, Activated human plasma kallikrein (Enzyme Research Laboratories, HPKa 1303) (human, UniProt P03952 20-638)
[2] = target: T4, Activated human plasma kallikrein …; remark: listed apart in the source
[3] = target: mouse plasma kallikrein (R&D Systems) (mouse, UniProt P26262 20-638)
[4] = target: Factor XIa (Enzyme Research Laboratories) (human, UniProt P03951 19-625)
[5] = target: T1, tissue kallikrein KLK13 (R&D Systems)
[6] = target: T4, Activated human plasma kallikrein …; remark: listed apart in the source
[7] = target: T4, Activated human plasma kallikrein …; remark: listed apart in the source
[8] = target: T4, Activated human plasma kallikrein …; remark: listed apart in the source
[9] = target: T2, Factor VIIa (Enzyme Research …)
[10] = target: Factor Xa (Enzyme Research Laboratories) (human, UniProt P00742 41-488, limits assumed)
[11] = target: T3, Factor XIIa (Enzyme Research …)
[12] = target: thrombin (Enzyme Research Laboratories) (human, UniProt P00734 328-622)
[13] = target: plasmin (Enzyme Research Laboratories) (human, UniProt P00747 97-810, limits assumed)
Chain of plasmin (Enzyme Research Laboratories) (P00747 97-810 limits assumed): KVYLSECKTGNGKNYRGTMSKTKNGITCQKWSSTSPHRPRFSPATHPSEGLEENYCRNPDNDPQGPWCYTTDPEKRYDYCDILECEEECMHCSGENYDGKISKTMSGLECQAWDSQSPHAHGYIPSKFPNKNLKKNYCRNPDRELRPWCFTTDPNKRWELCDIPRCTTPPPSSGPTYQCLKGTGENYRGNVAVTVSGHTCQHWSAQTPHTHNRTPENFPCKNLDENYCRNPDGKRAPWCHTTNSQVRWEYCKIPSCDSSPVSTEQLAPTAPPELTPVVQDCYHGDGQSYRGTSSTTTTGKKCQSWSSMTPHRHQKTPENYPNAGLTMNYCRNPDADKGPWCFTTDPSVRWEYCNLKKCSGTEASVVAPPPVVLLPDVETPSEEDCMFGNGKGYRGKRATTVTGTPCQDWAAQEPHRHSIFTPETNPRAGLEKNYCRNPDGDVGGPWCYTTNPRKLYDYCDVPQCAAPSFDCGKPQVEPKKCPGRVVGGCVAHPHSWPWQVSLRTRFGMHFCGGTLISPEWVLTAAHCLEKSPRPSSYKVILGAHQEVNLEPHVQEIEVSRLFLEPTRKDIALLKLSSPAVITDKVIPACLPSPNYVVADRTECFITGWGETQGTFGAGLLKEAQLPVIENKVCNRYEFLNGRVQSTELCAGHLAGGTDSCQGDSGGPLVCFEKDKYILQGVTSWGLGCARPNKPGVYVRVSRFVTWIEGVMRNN

Chain of Factor XIa (Enzyme Research Laboratories) (P03951 19-625 limits assumed): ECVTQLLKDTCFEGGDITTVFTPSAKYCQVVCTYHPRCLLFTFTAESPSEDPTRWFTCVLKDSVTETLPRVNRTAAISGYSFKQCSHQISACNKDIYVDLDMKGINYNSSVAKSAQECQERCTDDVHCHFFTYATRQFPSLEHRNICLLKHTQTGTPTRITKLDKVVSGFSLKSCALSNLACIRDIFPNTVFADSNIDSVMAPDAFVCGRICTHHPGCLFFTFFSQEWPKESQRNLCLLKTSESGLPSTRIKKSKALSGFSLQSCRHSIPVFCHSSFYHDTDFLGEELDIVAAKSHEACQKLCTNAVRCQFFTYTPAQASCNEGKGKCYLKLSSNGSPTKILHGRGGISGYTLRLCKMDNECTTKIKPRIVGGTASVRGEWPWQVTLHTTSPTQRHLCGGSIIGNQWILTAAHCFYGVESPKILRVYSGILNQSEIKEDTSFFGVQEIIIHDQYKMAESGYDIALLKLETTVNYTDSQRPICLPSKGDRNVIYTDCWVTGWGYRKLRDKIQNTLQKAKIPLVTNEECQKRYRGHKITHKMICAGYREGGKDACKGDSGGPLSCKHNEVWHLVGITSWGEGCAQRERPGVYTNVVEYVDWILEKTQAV
Chain of mouse plasma kallikrein (R&D Systems) (P26262 20-638 limits assumed): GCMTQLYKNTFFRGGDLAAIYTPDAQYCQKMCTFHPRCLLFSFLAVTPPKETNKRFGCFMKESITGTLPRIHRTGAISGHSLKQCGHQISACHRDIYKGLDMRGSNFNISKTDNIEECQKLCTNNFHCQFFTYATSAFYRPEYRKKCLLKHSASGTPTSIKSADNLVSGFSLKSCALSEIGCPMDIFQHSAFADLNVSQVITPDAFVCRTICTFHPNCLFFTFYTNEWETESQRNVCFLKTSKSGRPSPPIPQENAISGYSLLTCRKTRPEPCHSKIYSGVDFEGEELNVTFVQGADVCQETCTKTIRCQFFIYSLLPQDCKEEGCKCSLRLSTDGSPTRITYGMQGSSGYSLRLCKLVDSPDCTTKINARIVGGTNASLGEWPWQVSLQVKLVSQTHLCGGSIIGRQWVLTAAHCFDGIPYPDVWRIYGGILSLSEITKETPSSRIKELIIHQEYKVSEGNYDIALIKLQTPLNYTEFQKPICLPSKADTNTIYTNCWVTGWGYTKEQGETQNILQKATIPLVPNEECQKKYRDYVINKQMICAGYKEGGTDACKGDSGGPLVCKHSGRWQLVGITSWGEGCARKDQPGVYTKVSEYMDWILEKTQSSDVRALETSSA
T4 sequence (P03952 20-638 limits assumed): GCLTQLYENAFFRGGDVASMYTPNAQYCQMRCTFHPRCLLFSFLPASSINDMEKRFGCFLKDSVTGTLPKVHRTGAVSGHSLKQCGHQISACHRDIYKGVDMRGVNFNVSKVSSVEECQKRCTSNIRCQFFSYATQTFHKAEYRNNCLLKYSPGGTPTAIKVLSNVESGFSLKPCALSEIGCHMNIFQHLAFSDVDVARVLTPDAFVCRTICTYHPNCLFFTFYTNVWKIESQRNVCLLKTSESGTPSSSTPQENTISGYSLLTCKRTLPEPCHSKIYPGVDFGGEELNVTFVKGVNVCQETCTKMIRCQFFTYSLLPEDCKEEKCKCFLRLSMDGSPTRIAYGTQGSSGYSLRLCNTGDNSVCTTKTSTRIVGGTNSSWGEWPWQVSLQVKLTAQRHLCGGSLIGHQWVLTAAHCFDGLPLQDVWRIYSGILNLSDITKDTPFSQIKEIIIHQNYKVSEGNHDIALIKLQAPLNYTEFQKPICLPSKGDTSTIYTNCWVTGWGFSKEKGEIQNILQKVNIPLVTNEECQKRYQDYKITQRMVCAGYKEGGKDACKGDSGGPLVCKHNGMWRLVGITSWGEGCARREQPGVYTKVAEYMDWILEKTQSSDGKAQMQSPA
Chain of Factor Xa (Enzyme Research Laboratories) (P00742 41-488 limits assumed): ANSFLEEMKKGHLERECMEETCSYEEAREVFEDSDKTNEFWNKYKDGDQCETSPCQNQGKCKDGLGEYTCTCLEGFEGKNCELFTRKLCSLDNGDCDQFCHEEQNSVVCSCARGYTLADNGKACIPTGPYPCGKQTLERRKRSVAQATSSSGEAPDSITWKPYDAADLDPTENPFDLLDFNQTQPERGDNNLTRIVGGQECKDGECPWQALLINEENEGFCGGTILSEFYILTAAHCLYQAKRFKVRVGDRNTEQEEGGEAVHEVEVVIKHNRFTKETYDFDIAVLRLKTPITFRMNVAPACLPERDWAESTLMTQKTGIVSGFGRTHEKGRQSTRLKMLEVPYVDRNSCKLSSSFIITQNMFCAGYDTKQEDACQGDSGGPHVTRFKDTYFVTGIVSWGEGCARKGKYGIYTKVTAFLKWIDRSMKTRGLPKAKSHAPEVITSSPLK

Binder	Avg. IC50 [1] [nM]	Human Kallikrein IC50 [2] [nM]	Mouse Kallikrein IC50 [3] [nM]	Factor XIa IC50 [4] [nM]	KLK13 IC50 [5] [nM]	Avg. IC50 [6] [nM]	Avg. IC50 [7] [nM]	Avg. IC50 [8] [nM]	Factor VIIa IC50 [9] [nM]	Factor Xa IC50 [10] [nM]	Factor XIIa IC50 [11] [nM]	Thrombin IC50 [12] [nM]	Plasmin IC50 [13] [nM]
MCES[Phg]CRV-NH2 (linker 2-6 via mXylyl) [R2012]	8.3	8.3	11.3	> 8300	> 100000	–	–	–	–	–	–	–	–
MCNYWSPWTECSR-NH2 (linker 2-11 via mXylyl) [R2003]	–	–	–	–	–	3.1	3.1	–	–	–	–	–	–
Ac-CESICRV-NH2 (linker 1-5 via mXylyl) [R2023]	19	19	47.3	> 12100	> 100000	–	–	–	> 100000	> 7000	> 100000	> 100000	> 100000
[Nva]CEP[Phg]CR[Tle]-NH2 (linker 2-6 via mXylyl) [R2030]	25	25	63.9	> 10400	> 100000	–	–	–	> 100000	> 100000	> 100000	> 100000	> 100000
MCESICRVLRYSE-NH2 (linker 2-6 via mXylyl) [R2004]	0.501	–	–	–	–	0.501	–	–	–	–	–	–	–
Ac-CAS[Phg]CR[Tle]-NH2 (linker 1-5 via mXylyl) [R2036]	6.4	6.4	12.8	> 4800	> 100000	–	–	–	> 100000	> 7000	> 100000	> 100000	> 19500
MCESICR[Tle]-NH2 (linker 2-6 via mXylyl) [R2010]	9.9	9.9	38.8	> 15000	> 100000	–	–	–	> 100000	> 100000	> 100000	> 100000	> 100000
MCE[NMeS]ICRV-NH2 (linker 2-6 via mXylyl) [R2019]	52.3	52.3	85.6	> 9100	> 16400	–	–	–	> 100000	> 10000	> 12500	> 100000	> 21000
MCESICRV-NH2 (linker 2-6 via mXylyl) [R2006]	11.8	25	42	> 11600	> 100000	–	–	–	> 100000	> 7000	> 100000	> 100000	> 100000
Heptanoyl-CESICRV-NH2 (linker 1-5 via mXylyl) [R2041]	24.2	24.2	191	> 5400	> 100000	–	–	–	> 17900	> 7000	> 100000	> 100000	> 100000

Further lines, results first:

Avg. IC50 [1] [nM]	Human Kallikrein IC50 [2] [nM]	Mouse Kallikrein IC50 [3] [nM]	Factor XIa IC50 [4] [nM]	KLK13 IC50 [5] [nM]	Avg. IC50 [6] [nM]	Avg. IC50 [7] [nM]	Avg. IC50 [8] [nM]	Factor VIIa IC50 [9] [nM]	Factor Xa IC50 [10] [nM]	Factor XIIa IC50 [11] [nM]	Thrombin IC50 [12] [nM]	Plasmin IC50 [13] [nM]	Binder
–	–	–	–	–	–	–	> 4900	–	–	–	–	–	Ac-CNYWSP[NMeW]TAC-NH2 (cysteine pairing not given here) [R2236]
–	–	–	–	–	–	–	> 4520	–	–	–	–	–	Ac-CNY[NMeW]SPWTAC-NH2 (cysteine pairing not given here) [R2238]
–	–	–	–	–	–	–	> 12500	–	–	–	–	–	Ac-CN[NMeY]WSPWTAC-NH2 (cysteine pairing not given here) [R2239]
–	–	–	–	–	–	–	2.7	–	–	–	–	–	Ac-CNYWSPWT[NMeA]C-NH2 (cysteine pairing not given here) [R2234]
–	–	–	–	–	–	–	101	–	–	–	–	–	Ac-CNYWSPW[NMeT]AC-NH2 (cysteine pairing not given here) [R2235]
–	–	–	–	–	–	–	> 13900	–	–	–	–	–	Ac-CNYW[NMeS]PWTAC-NH2 (cysteine pairing not given here) [R2237]
12.9	12.9	19.3	> 8300	> 100000	–	–	–	> 100000	> 100000	> 100000	> 100000	> 100000	{des‑NH2}-CESICRV-NH2 (linker 1-5 via mXylyl; not fully specified (residue 1); printed as [mXylyl(1,5)](des-NH2)C-ESICRV-NH2) [R2051]
17.4	32.3	36.7	> 13800	> 100000	–	–	–	> 100000	> 100000	> 100000	> 100000	> 100000	Ac-CASICRV-NH2 (linker 1-5 via mXylyl; not fully specified (residue 2); printed as [mXylyl(1,5)]Ac-C-a-SICRV-NH2) [R2047]
–	3.4	11.2	> 5000	> 100000	–	3.4	–	> 100000	> 100000	> 100000	> 100000	5800	MCNYWSPWTECSA-NH2 (cysteine pairing not given here) [R2104]
